From US20230057987A1 (published 2023) come the findings set out here.

The target of assay [1] is T1, CT45 (CT45A1, A2, A3, A5 to A10); CT45-IP peptide on HLA-A*02:01 (human).
T1 peptide: KIFEMLEGV
Description: luciferase release, 24 h, 1:1; CD8+ T cells with TCR mRNA, T2 cells with titrated peptide; full-length, on cells.

In assay [2] the target is T2, CT45-IP alanine variant, position 1 peptide on HLA-A*02:01 (human).
T2 peptide: AIFEMLEGV
As to the kind of experiment: killing.

Assay [3] deals with T3, similar peptide SP-05-0010, source protein not stated peptide on HLA-A*02:01 (human).
T3 peptide: RIFETVNSV
As to the kind of experiment: killing.

Assay [4] addresses T4, similar peptide SP-05-0002, source protein not stated peptide on HLA-A*02:01 (human).
T4 peptide: KIFSGLLKV
Description: killing.

For assay [5], the target named is T5, similar peptide SP-05-0005, source protein not stated peptide on HLA-A*02:01 (human).
T5 peptide: KIEEFLEAV
As to the kind of experiment: killing.

Assay [6] has as its target T6, similar peptide SP-05-0004, source protein not stated peptide on HLA-A*02:01 (human).
T6 peptide: KIWEWLVGV
As to the kind of experiment: killing.

In assay [7] the target is T7, similar peptide SP-05-0006, source protein not stated peptide on HLA-A*02:01 (human).
T7 peptide: KIAELLENV
As to the kind of experiment: killing.

Assay [8] addresses T8, similar peptide SP-05-0001, source protein not stated peptide on HLA-A*02:01 (human).
T8 peptide: HIMEHLEGV
Description: killing.

Assay [9] has as its target T9, similar peptide SP-05-0009, source protein not stated peptide on HLA-A*02:01 (human).
T9 peptide: KIIDLLPKV
Description: killing.

In assay [10] the target is T10, CT45-IP alanine variant, position 5 peptide on HLA-A*02:01 (human).
T10 peptide: KIFEALEGV
Description: killing.

In assay [11] the target is T11, similar peptide SP-05-0008, source protein not stated peptide on HLA-A*02:01 (human).
T11 peptide: KILDELEKV
Description: killing.

The target of assay [12] is T12, similar peptide SP-05-0003, source protein not stated peptide on HLA-A*02:01 (human).
T12 peptide: KVTEMLVNV
As to the kind of experiment: killing.

Assay [13] deals with T13, similar peptide SP-05-0007, source protein not stated peptide on HLA-A*02:01 (human).
T13 peptide: KIFPALCTV
Description: killing.

Assay [14] addresses T1, CT45 (CT45A1, A2, A3, A5 to A10); …. Description: CT45-IP-HLA-A*02 dextramer on T cells with TCR mRNA; TCR found by tetramer sorting; full-length, on cells.
Assay [15] deals with CT45-IP antigenic peptide (…) in complex with HLA-A*02 presented on cells (peptide-loaded T2 cells; NCIH1703 and A375 tumor cells) (human). As to the kind of experiment: cell-based or functional assay.
Assay [16] deals with CT45-IP-HLA-A*02 dextramer (human). As to the kind of experiment: flow cytometry, dextramer staining of TCR-mRNA electroporated T cells, gated on CD3+.
Assay [17] concerns the target T14, CT45-IP alanine variant, position 8 peptide on HLA-A*02:01 (human).
T14 peptide: KIFEMLEAV
As to the kind of experiment: killing.

B1: TCR-4 (TCR, V domains shown)
Valpha: QSVAQPEDQVNVAEGNPLTVKCTYSVSGNPYLFWYVQYPNRGLQFLLKYITGDNLVKGSYGFEAEFNKSQTSFHLKKPSALVSDSALYFCAAPRDDKIIFGKGTRLHILP
Vbeta: GVTQTPKFRVLKTGQSMTLLCAQDMNHEYMYWYRQDPGMGLRLIHYSVGEGTTAKGEVPDGYNVSRLKKQNFLLGLESAAPSQTSVYFCASSYLRTGGNEQFFGPGTRLTVL
On to B1, for which the EC50 of peptide in assay [1] was determined as 1.31 nM. Besides, the binding result in [2] is “recognises”; in [3] it was “no recognition”; in assay [4], “no recognition”; in assay [5], “no recognition”; in [6], “no recognition”; in [7], “no recognition”. For the same molecule, the binding result is recorded as “no recognition” in assay [8]; “no recognition” in [9]; “recognises” in assay [10]; “no recognition” in [11]; “no recognition” in assay [12]; “no recognition” in assay [13]. The molecule further registered a dextramer-positive events in assay [14] of 39.1%. In assay [15], this molecule yielded an EC50, half maximal killing capacity (functional avidity; CT45-IP peptide titration on T2 cells, luciferase release) of 1.31 nM. Further, the surface expression, % positive events by CT45-IP-HLA-A2*02 dextramer staining in [16] was determined as 39.1%.

B2: TCR-12 (TCR, V domains shown)
Valpha: QLLEQSPQFLSIQEGENLTVYCNSSSVFSSLQWYRQEPGEGPVLLVTVVTGGEVKKLKRLTFQFGDARKDSSLHITAAQPGDTGLYLCAGGLSDSYDKVIFGPGTSLSVIP
Vbeta: EVTQTPKHLVMGMTNKKSLKCEQHMGHRAMYWYKQKAKKPPELMFVYSYEKLSINESVPSRFSPECPNSSLLNLHLHALQPEDSALYLCASSQGVGQEYGYTFGSGTRLTVV
As to B2, the EC50 of peptide in assay [1] stood at 47.5 nM. In addition, the binding result was “recognises” in assay [2]; “no recognition” in assay [3]; “no recognition” in [4]; “no recognition” in assay [5]; “recognises” in assay [17]; “no recognition” in assay [6]. The binding result in [7] is “no recognition”; in [8], “no recognition”; in [9], “no recognition”; in assay [10], “recognises”; in [11], “no recognition”; in [12], “no recognition”. In addition, in assay [13], the binding result is listed as “no recognition”. Further, the dextramer-positive events in assay [14] came out at 20.1%. In assay [15], this molecule showed an EC50, half maximal killing capacity (functional avidity; CT45-IP peptide titration on T2 cells, luciferase release) of 47.5 nM. In assay [16], this molecule showed a surface expression, % positive events by CT45-IP-HLA-A2*02 dextramer staining of 20.1%.

B3: TCR-13 (TCR, V domains shown)
Valpha: QKITQTQPGMFVQEKEAVTLDCTYDTSDQSYGLFWYKQPSSGEMIFLIYQGSYDEQNATEGRYSLNFQKARKSANLVISASQLGDSAMYFCAMSDPIMDTGRRALTFGSGTRLQVQP
Vbeta: GITQSPKYLFRKEGQNVTLSCEQNLNHDAMYWYRQDPGQGLRLIYYSQIVNDFQKGDIAEGYSVSREKKESFPLTVTSAQKNPTAFYLCASKSRGPNLADTQYFGPGTRLTVL
Take B3: in [1], the EC50 of peptide came to 11.4 nM. The binding result in assay [3] is recorded as “no recognition”; in assay [4], “no recognition”; in [5] it was “no recognition”; in assay [17] it was “recognises”; in [6], “no recognition”; in [7] it was “no recognition”. In addition, the binding result is “no recognition” in assay [8]; “no recognition” in assay [9]; “recognises” in assay [10]; “no recognition” in [11]; “no recognition” in assay [12]; “no recognition” in assay [13]. The dextramer-positive events in assay [14] turned out to be 53.1%. Also, the EC50, half maximal killing capacity (functional avidity; CT45-IP peptide titration on T2 cells, luciferase release) in [15] is 11.4 nM. In addition, the surface expression, % positive events by CT45-IP-HLA-A2*02 dextramer staining in assay [16] is 53.1%.
